# Patent US20220249633A1
# Target: HLA-A*24 (human)
# Assay: UV-exchange ELISA, exchange yield grade
row,Binder,peptide exchange yield [%]
1,AYAANVHYL [… (SEQ ID NO: 187)],> 75
2,GYKTFFNEF [… (SEQ ID NO: 188)],50 to 75
3,LYSELTETL [… (SEQ ID NO: 190)],50 to 75
4,TYPDGTYTGRIF [… (SEQ ID NO: 191)],50 to 75
5,RYSTFSEIF [… (SEQ ID NO: 192)],50 to 75
6,LYLENNAQTQF [… (SEQ ID NO: 193)],50 to 75
7,VYQSLSNSL [… (SEQ ID NO: 194)],50 to 75
8,AYIKGGWIL [… (SEQ ID NO: 195)],50 to 75
9,GYIRGSWQF [… (SEQ ID NO: 196)],> 75
10,IFTDIFHYL [… (SEQ ID NO: 197)],> 75
11,DYVGFTLKI [… (SEQ ID NO: 198)],20 to 49
12,SYLNHLNNL [… (SEQ ID NO: 199)],50 to 75
13,VFIHHLPQF [… (SEQ ID NO: 200)],50 to 75
14,GYNPNRVFF [… (SEQ ID NO: 201)],50 to 75
15,RYVEGIVSL [… (SEQ ID NO: 202)],50 to 75
16,EYLSTCSKL [… (SEQ ID NO: 204)],50 to 75
17,VYPVVLNQI [… (SEQ ID NO: 205)],50 to 75
18,NYLDVATFL [… (SEQ ID NO: 206)],> 75
19,LYSDAFKFIVF [… (SEQ ID NO: 207)],50 to 75
20,TYLEKIDGF [… (SEQ ID NO: 208)],> 75
21,AFIETPIPLF [… (SEQ ID NO: 209)],> 75

row,Binder,peptide exchange yield [%]
1,IYAGVGEFSF [… (SEQ ID NO: 210)],> 75
2,VFKSEGAYF [… (SEQ ID NO: 211)],> 75
3,SYAPPSEDLF [… (SEQ ID NO: 212)],20 to 49
4,SYAPPSEDLFL [… (SEQ ID NO: 213)],20 to 49
5,KYLMELTLI [… (SEQ ID NO: 214)],50 to 75
6,SYVASFFLL [… (SEQ ID NO: 215)],20 to 49
7,FYVNVKEQF [… (SEQ ID NO: 216)],50 to 75
8,IYISNSIYF [… (SEQ ID NO: 217)],> 75
9,LYSELNKWSF [… (SEQ ID NO: 218)],50 to 75
10,SYLKAVFNL [… (SEQ ID NO: 219)],50 to 75
11,SYSEIKDFL [… (SEQ ID NO: 220)],> 75
12,KYIGNLDLL [… (SEQ ID NO: 221)],> 75
13,TFITQSPLL [… (SEQ ID NO: 223)],> 75
14,PYFFANQEF [… (SEQ ID NO: 224)],50 to 75
15,TYTNTLERL [… (SEQ ID NO: 225)],50 to 75
16,MYLKLVQLF [… (SEQ ID NO: 226)],20 to 49
17,IYRFITERF [… (SEQ ID NO: 227)],50 to 75
18,IYQYVADNF [… (SEQ ID NO: 228)],50 to 75
19,IYQFVADSF [… (SEQ ID NO: 229)],50 to 75
20,TYGMVMVTF [… (SEQ ID NO: 230)],50 to 75

# The remaining lines, values ahead:
row,peptide exchange yield [%],Binder
1,> 75,AFADVSVKF [… (SEQ ID NO: 231)]
2,50 to 75,YYLSDSPLL [… (SEQ ID NO: 232)]
3,50 to 75,QYLTAAALHNL [… (SEQ ID NO: 233)]
4,50 to 75,SYLPAIWLL [… (SEQ ID NO: 234)]
5,50 to 75,VYKDSIYYI [… (SEQ ID NO: 235)]
6,50 to 75,VYLPKIPSW [… (SEQ ID NO: 236)]
7,50 to 75,KYVGQLAVL [… (SEQ ID NO: 237)]
8,50 to 75,VYAIFRILL [… (SEQ ID NO: 239)]
9,50 to 75,YYFFVQEKI [… (SEQ ID NO: 240)]
10,50 to 75,SYVKVLHHL [… (SEQ ID NO: 241)]
11,50 to 75,VYGEPRELL [… (SEQ ID NO: 242)]
12,50 to 75,SYLELANTL [… (SEQ ID NO: 243)]
13,50 to 75,VHFEDTGKTLLF [… (SEQ ID NO: 244)]
14,50 to 75,LYPQLFVVL [… (SEQ ID NO: 245)]
15,20 to 49,KYLSVQLTL [… (SEQ ID NO: 246)]
16,50 to 75,SFTKTSPNF [… (SEQ ID NO: 247)]
17,> 75,AFPTFSVQL [… (SEQ ID NO: 248)]

row,peptide exchange yield [%],Binder
1,> 75,RYHPTTCTI [… (SEQ ID NO: 249)]
2,20 to 49,KYPDIASPTF [… (SEQ ID NO: 250)]
3,50 to 75,VYTKALSSL [… (SEQ ID NO: 251)]
4,> 75,AFGQETNVPLNNF [… (SEQ ID NO: 252)]
5,50 to 75,IYGFFNENF [… (SEQ ID NO: 253)]
6,50 to 75,KYLESSATF [… (SEQ ID NO: 254)]
7,50 to 75,VYQKIILKF [… (SEQ ID NO: 255)]
8,50 to 75,VFGKSAYLF [… (SEQ ID NO: 256)]
9,50 to 75,IFIDNSTQPLHF [… (SEQ ID NO: 257)]
10,50 to 75,AYAQLGYLL [… (SEQ ID NO: 258)]
11,20 to 49,YFIKSPPSQLF [… (SEQ ID NO: 259)]
12,> 75,VYMNVMTRL [… (SEQ ID NO: 260)]
13,> 75,GYIKLINFI [… (SEQ ID NO: 261)]
14,> 75,VYSSQFETI [… (SEQ ID NO: 262)]
15,50 to 75,RYILENHDF [… (SEQ ID NO: 263)]
16,> 75,LYTETRLQF [… (SEQ ID NO: 264)]
17,> 75,SYLNEAFSF [… (SEQ ID NO: 265)]
